According to patent US20190276873A1:

Columns and labels:
Assay in all cases: cell-based or functional assay
[1] = target: Sensor 3: NNano-hVAMP1-CNano (human)
[2] = target: In vivo assay construct: Nnano(1-159)-Firefly(Full length)-GGGGS-p25(FullLength)-Cnano(160-170) (Photinus pyralis; human)
[3] = target: Sensor 2: NNano-p25-CNano (human)
[4] = target: Sensor 1: NNano-SV2C-p25-CNano (human)

In vivo assay construct: Nnano(1-159)-Firefly(Full length)-GGGGS-p25(FullLength)-Cnano(160-170) (Photinus pyralis; human), sequence (P08659 other isoform, or with tags, fused parts or gaps): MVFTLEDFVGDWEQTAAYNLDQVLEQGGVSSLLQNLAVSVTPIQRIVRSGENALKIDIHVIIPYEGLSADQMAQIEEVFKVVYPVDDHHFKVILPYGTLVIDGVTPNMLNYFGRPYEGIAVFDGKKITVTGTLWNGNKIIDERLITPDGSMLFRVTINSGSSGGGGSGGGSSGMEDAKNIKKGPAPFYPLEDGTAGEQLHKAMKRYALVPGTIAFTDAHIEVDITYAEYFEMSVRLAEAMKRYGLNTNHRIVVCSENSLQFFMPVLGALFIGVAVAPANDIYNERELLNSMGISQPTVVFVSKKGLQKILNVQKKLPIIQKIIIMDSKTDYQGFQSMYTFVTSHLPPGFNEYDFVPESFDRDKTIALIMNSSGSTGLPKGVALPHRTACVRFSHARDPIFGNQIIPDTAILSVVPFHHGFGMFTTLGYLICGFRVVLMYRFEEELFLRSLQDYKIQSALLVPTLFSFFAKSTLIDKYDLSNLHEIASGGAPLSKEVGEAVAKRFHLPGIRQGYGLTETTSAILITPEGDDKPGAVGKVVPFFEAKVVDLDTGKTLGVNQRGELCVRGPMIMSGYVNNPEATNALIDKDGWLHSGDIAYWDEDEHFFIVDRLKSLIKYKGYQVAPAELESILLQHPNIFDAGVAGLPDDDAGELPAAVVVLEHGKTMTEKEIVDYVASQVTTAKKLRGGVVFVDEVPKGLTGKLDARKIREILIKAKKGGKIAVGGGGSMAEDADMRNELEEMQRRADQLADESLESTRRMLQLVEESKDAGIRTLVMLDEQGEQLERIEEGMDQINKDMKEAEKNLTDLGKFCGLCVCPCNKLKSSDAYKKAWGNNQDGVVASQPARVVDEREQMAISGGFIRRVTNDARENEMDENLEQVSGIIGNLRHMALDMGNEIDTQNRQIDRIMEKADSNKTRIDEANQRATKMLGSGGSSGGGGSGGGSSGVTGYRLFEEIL

Botulinum neurotoxin B (BoNT/B) (from UniProt P10844 2-1291) (enzyme)
EC50 (percentage of luminescence of NANOLUC luciferase, after 4 h at 37 C) [1]: 75.7 pM
EC50 (percentage of luminescence of NANOLUC luciferase, after 24 h at 37 C) [1]: 3.9 pM

Botulinum neurotoxin A (BoNT/A) (from UniProt P0DPI0 2-1296) (enzyme)
EC50 (ratio NANOLUC/Firefly in lysates of neurons, 48 h after toxin) [2]: 2.9 pM
EC50 (percentage of luminescence of NANOLUC luciferase, after 4 h at 37 C) [3]: 48.3 pM
EC50 (percentage of luminescence of NANOLUC luciferase, after 24 h at 37 C) [3]: 35.9 pM
EC50 (percentage of luminescence of NANOLUC luciferase, after 4 h at 37 C) [4]: 9.73 pM
EC50 (percentage of luminescence of NANOLUC luciferase, after 24 h at 37 C) [4]: 7.86 pM
fold sensitivity (EC50) against the sensor without SV2C [4]: 5 fold
